This passage reports Km results from paper PMC4230323 (Biochemistry, 2014).

The format of data set [1] is biochemical. Conditions: read-out: Km(ATP); 100 μM SPS.
The format of data set [2] is biochemical. Conditions: read-out: Km(SPS); Src peptide substrate.

Read-outs that look alike come from different tables or passages of the source.

B1: Lyn^SH2eng: Lyn Q509E/Q510E/Q511I three-domain construct with enhanced SH2 engagement (protein)
chain: QGDIVVALYPYDGIHPDDLSFKKGEKMKVLEEHGEWWKAKSLLTKKEGFIPSNYVAKLNTLETEEWFFKDITRKDAERQLLAPGNSAGAFLIRESETLKGSFSLSVRDFDPVHGDVIKHYKIRSLDNGGYYISPRITFPCISDMIKHYQKQADGLCRRLEKACISPKPQKPWDKDAWEIPRESIKLVKRLGAGQFGEVWMGYYNNSTKVAVKTLKPGTMSVQAFLEEANLMKTLQHDKLVRLYAVVTREEPIYIITEYMAKGSLLDFLKSDEGGKVLLPKLIDFSAQIAEGMAYIERKNYIHRDLRAANVLVSESLMCKIADFGLARVIEDNEYTAREGAKFPIKWTAPEAINFGCFTIKSDVWSFGILLYEIVTYGKIPYPGRTNADVMTALSQGYRMPRVENCPDELYDIMKMCWKEKAEERPTFDYLQSVLDDFYTATEGQYEEIP
modifications: left off: His tag, N-terminal, kept
As a reminder, the Km is the concentration of substrate that gives half-maximal velocity. On to B1, for which the Km is 54 ± 5 µM in data set [1] and 60 ± 10 µM in data set [2].
